Measured values from patent US6730503B1 (Roche Vitamins Inc., priority 1996, dated 2004).

What was measured:
[1] = pH stability, 3 hours at 25° C., residual activity by PMS-DCIP assay; type: physicochemical; conditions: relative to no incubation at pH 8.0
Method: Enzymes A, A′, A″ and B were incubated in buffers of various pH-values for 3 hours at 25° C. and the residual activities were assayed and expressed as relative values against that obtained by no incubation at pH 8.
Table 3 indicates the results of pH-stabilities of the enzymes. The enzyme (about 0.01 mg/ml) was incubated with 50 mM buffer containing 5% sucrose, 0.2 M NaCl, and 5 mM CaCl2 at 25° C. for 3 hours and assayed by PMS-DCIP spectrophotometric method. The buffers were Na-acetate, pH4 and 5, Tris-malate-NaOH, pH 6, 7 and 8, glycine-NaOH, pH 9 and 10. The values in the table are expressed as relative activity against that obtained by no incubation at pH 8.0.

[2] = Thermal stability, 5 minutes, residual activity by PMS-DCIP assay; type: physicochemical
Method: Table 4 indicates the results of thermal-stabilities of the enzymes. The enzyme (about 0.05 mg/ml) in 25 mM HEPES buffer, pH 7.5, containing 5% sucrose, 0.2 M NaCl, and 5 mM CaCl2 was incubated at temperature indicated in the table (4-60° C.) for 5 minutes, cooled in ice bath and assayed by PMS-DCIP spectrophotometric method. Remaining activity was expressed as relative activity against that obtained by 4° C. incubation.

[3] = Oxidation product of AADH clones by resting cell reaction followed by TLC analysis; type: cell-based, P. putida
From the text: Enzyme A gene was originally cloned as a cosmid clone of p24D4 which has about 25 kb insert in EcoRI site of pVK100. Then, it was further subcloned to use as an Enzyme A gene cassette. The 2.7 kb EcoRV fragment which includes ORF of Enzyme A gene with about 500 bp of non-coding regions at the both ends was excised from 3.4 kb NruI fragment, which was isolated from p24D4 in M13 mp18, and was ligated to HindIII site of pUC18 with HindIII linker ([…]). The resulting plasmid was designated pSSA202. Enzyme A gene cassette (2.7 kb HindIII fragment) was then inserted at HindIII site of pVK102 to produce pSSA102R. The plasmid pSSA102R was introduced into nalidixic acid resistant P. putida [ATCC 21812] by a conjugal mating method as described in Example 1-(1). The transconjugant of P. putida carrying pSSA102R was selected on MB agar medium containing 50 μg/ml nalidixic acid and 10 μg/ml tetracycline (MNT agar medium) and subjected to a mini-resting cell reaction. […] The reaction mixture was assayed with TLC and 2KGA was identified as the product, while no 2KGA was observed by the same resting cell reaction with the host, nalidixic acid resistant P. putida [ATCC 21812].

[4] = Substrate specificity of purified enzymes, PMS-DCIP spectrophotometric assay; type: biochemical; conditions: A′ corrected 1.5-fold (purity about 65%)
Method: The enzymatic activity of the AADHs herein can be determined by methods known in the art, such as by photometric analysis using a spectrophotometer. In accordance with the present invention, one unit of enzyme activity was defined as the amount of enzyme which catalyzed the reduction of 1 μmole of DCIP per minute. The extinction coefficient of DCIP at pH 8.0 was taken as 15 mM^−1. In a preferred standard assay for determining the enzyme activity of the AADHs herein, a first cuvette includes a standard reaction mixture (1.0 ml) containing 0.1 mM DCIP, 1 mM PMS, 2 to 125 mM substrate, 50 mM Tris-malate-NaOH buffer (pH 8.0), and 10 μl of the enzyme solution. A second cuvette, i.e., a reference cuvette, contains all the above components except the substrate. The reference cuvette is used to standardize the background absorbance resulting from a substrate-independent (endogenous) reaction. Preferably, a double beam spectrophotometer is used to determine the activity of the enzyme in the presence of a substrate with respect to a standard reaction mixture in the absence of the substrate.
Enzyme activities of each clone (cell free extract, soluble fraction and membrane fraction) were measured by photometric analysis. The cells of each clone were inoculated in 5 ml of MB medium in a test tube and cultivated at 30° C. for 24 hours. The resulting broth was transferred into 200 ml of fresh MB medium in 500 ml flask and the flask was shaken on the rotary flask shaker at 30° C. for 24 hours. The cells were collected by centrifugation at 6,000×g for 10 minutes and washed with 40 ml of cold buffer consisting of 50 mM Tris-HCl, pH 7.5, 5 mM MgCl2 and 0.5 mM phenylmethylsulfonyl fluoride and suspended with the same buffer to prepare cell suspension of 1 g wet cells per 5 ml. The cell suspension was subjected twice to a French press cell disruptor (1,500 kg/cm^2) and the resulting homogenate was centrifuged at 6,000×g for 10 minutes to remove cell debris. Thus obtained cell free extract (CFE) was centrifuged at 100,000×g for 60 minutes. The resulting supernatant and pellet were collected as the cytosol fraction and the membrane fraction, respectively and subjected to PMS-DCIP assay as follows. The enzyme reaction mixture (1.0 ml) contained 100 μM DCIP, 1 mM PMS, 50 mM Tris malate-NaOH buffer, pH 8.0, a substrate and the enzyme (10 μl). Substrate-dependent decreasing rate of absorbance of DCIP at 600 nm was measured at 25° C. by using a Kontron spectrophotometer UVIKON 810. […] In the A-group, there were three types, A, A′ and A″ each of which was distinguished from each other by their physical map of the DNA carried on each plasmid. B- or C-group each consisted of only one type of protein derived from one region of the chromosomal DNA.

B1: Enzyme A: recombinant AADH of G. oxydans DSM No. 4025, amino acid sequence SEQ ID NO 5, plasmid p24D4/pSSA102R (protein)
chain: MKPTSLLWASAGALALLAAPAFAQVTPVTDELLANPPAGEWISYGQNQENYRHSPLTQITTENVGQLQLVWARGMQPGKVQVTPLIHDGVMYLANPGDVIQAIDAKTGDLIWEHRRQLPNIATLNSFGEPTRGMALYGTNVYFVSWDNHLVALDTATGQVTFDVDRGQGEDMVSNSSGPIVANGVIVAGSTCQYSPFGCFVSGHDSATGEELWRNYFIPRAGEEGDETWGNDYEARWMTGAWGQITYDPVTNLVHYGSTAVGPASETQRGTPGGTLYGTNTRFAVRPDTGEIVWRHQTLPRDNWDQECTFEMMVTNVDVQPSTEMEGLQSINPNAATGERRVLTGVPCKTGTMWQFDAETGEFLWARDTNYQNMIESIDENGIVTVNEDAILKELDVEYDVCPTFLGGRDWPSAALNPDSGIYFIPLNNVCYDMMAVDQEFTSMDVYNTSNVTKLPPGKDMIGRIDAIDISTGRTLWSVERAAANYSPVLSTGGGVLFNGGTDRYFRALSQETGETLWQTRLATVASGQAISYEVDGMQYVAIAGGGVSYGSGLNSALAGERVDSTAIGNAVYVFALPQ
modifications: Gluconobacter oxydans; SIGNAL (1)..(23)
**Q.** Which results are given for B1?
**A.** Relative activity (pH stability) ([1]; incubated at pH 4.0, 3 hours): 5.4%; Relative activity (pH stability) ([1]; incubated at pH 5.0, 3 hours): 32.0%; Relative activity (pH stability) ([1]; incubated at pH 6.0, 3 hours): 74.7%; Relative activity (pH stability) ([1]; incubated at pH 7.0, 3 hours): 76.9%; Relative activity (pH stability) ([1]; incubated at pH 8.0, 3 hours): 80.1%; Relative activity (pH stability) ([1]; incubated at pH 9.0, 3 hours): 60.1%; Relative activity (pH stability) ([1]; incubated at pH 10.0, 3 hours): 53.2%; Relative activity (pH stability) ([1]; incubated at pH 11.0, 3 hours): 31.0%; Relative activity (thermal stability) ([2]; 4° C. for 5 minutes (reference)): 100.0%; Relative activity (thermal stability) ([2]; 20° C. for 5 minutes, relative to 4° C. incubation): 91.5%; Relative activity (thermal stability) ([2]; 30° C. for 5 minutes, relative to 4° C. incubation): 78.0%; Residual activity ([2]; 40° C. for 5 min): 20%; Relative activity (thermal stability) ([2]; 40° C. for 5 minutes, relative to 4° C. incubation): 19.9%; Relative activity (thermal stability) ([2]; 50° C. for 5 minutes, relative to 4° C. incubation): 4.1%; Relative activity (thermal stability) ([2]; 60° C. for 5 minutes, relative to 4° C. incubation): 2.9%; Oxidation product of D-sorbitol [3]: mainly D-glucose; Oxidation product of L-sorbose [3]: *1Oxidation product of L-sorbose by Enzymes A, A′, A″, and [A and B] was 2KGA.; Oxidation product of L-sorbosone [3]: *4Oxidation product of L-sorbosone by Enzymes A, A′, A″, B, and [A and B] was 2KGA.; Substrate specificity ([4]; 2 mM L-Sorbosone): 23.15 units/mg of purified protein; Substrate specificity ([4]; 50 mM D-Glucose): 2.4 units/mg of purified protein; Substrate specificity ([4]; 50 mM D-Mannitol): 7.1 units/mg of purified protein; Substrate specificity ([4]; 50 mM Isopropanol): 76.8 units/mg of purified protein; Substrate specificity ([4]; 50 mM n-Propanol): 139.6 units/mg of purified protein; Substrate specificity ([4]; 125 mM D-Fructose): 30.7 units/mg of purified protein; Substrate specificity ([4]; 125 mM D-Sorbitol): 14.0 units/mg of purified protein; Substrate specificity ([4]; 125 mM L-Sorbose): 47.4 units/mg of purified protein
